# The supplement of paper PMC10724198
# Tests used:
# Saccharomyces cerevisiae [1] = test: protein stability index of tFT-peptide fusion in wild type (PSI (0-1 scale)); higher = more stable (slower turnover); settings: genetic background: wild type
# Method: (§1)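 MPS profiling in S. cerevisiae of two library types built from selected 12-aa C-degron peptides (IN1, IN2, LN1, LN3, VN2, R1-R5, W1-W3, Atg1 and Rpa12 C-termini): saturation mutagenesis libraries and C-terminal +1 capping libraries (13 aa). Each peptide is fused to the C-terminus of a sfGFP-mCherry timer, after a GGGS linker. Cells are FACS-sorted into 8 mCherry/sfGFP bins and sequenced. PSI runs from 0 (unstable) to 1 (stable), measured once in wild type and in the das1Δ or doa10Δ background.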
# Saccharomyces cerevisiae [2] = test: protein stability index of tFT-peptide fusion in deletion strain of DAS1 (PSI (0-1 scale)); higher = more stable (slower turnover)
# Method: as §1
# 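For protein stability index of tFT-peptide fusion in deletion strain of DAS1 in this document: PSI is a weighted mean of each variant's read distribution over the sorted stability bins, computed only for variants having over 10 reads in total.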
# 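For protein stability index of tFT-peptide fusion in wild type in this document: PSI derived as read-weighted mean over the 8 sorting bins, only variants exceeding 10 total reads kept, mCherry placed adjacent to the peptide and sfGFP distal.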
sequence,measurement,setting,value
LVVYLSCVACIW,protein stability index,Saccharomyces cerevisiae [1],0.0175
same,protein stability index,Saccharomyces cerevisiae [2],0.0367
LVVYLSCVACQN,protein stability index,Saccharomyces cerevisiae [1],0.0434
same,protein stability index,Saccharomyces cerevisiae [2],0.097
LVVYLSCVAEIN,protein stability index,Saccharomyces cerevisiae [1],0.0146
same,protein stability index,Saccharomyces cerevisiae [2],0.0269
LVVYLSCVAMIN,protein stability index,Saccharomyces cerevisiae [1],0.0127
same,protein stability index,Saccharomyces cerevisiae [2],0.032
LVVYLSCVASIN,protein stability index,Saccharomyces cerevisiae [1],0.0148
same,protein stability index,Saccharomyces cerevisiae [2],0.0412
LVVYLSCVAWIN,protein stability index,Saccharomyces cerevisiae [1],0.0134
same,protein stability index,Saccharomyces cerevisiae [2],0.0302
LVVYLSCVTCIN,protein stability index,Saccharomyces cerevisiae [1],0.0223
same,protein stability index,Saccharomyces cerevisiae [2],0.0605
LVVYLSLVACIN,protein stability index,Saccharomyces cerevisiae [1],0.0258
same,protein stability index,Saccharomyces cerevisiae [2],0.0617
LVVYLSPVACIN,protein stability index,Saccharomyces cerevisiae [1],0.18
same,protein stability index,Saccharomyces cerevisiae [2],0.278
LVVYLSVVACIN,protein stability index,Saccharomyces cerevisiae [1],0.0255
same,protein stability index,Saccharomyces cerevisiae [2],0.0878
LVVYYSCVACIN,protein stability index,Saccharomyces cerevisiae [1],0.0106
same,protein stability index,Saccharomyces cerevisiae [2],0.0266
PDERNHLIKLLN,protein stability index,Saccharomyces cerevisiae [1],0.179
same,protein stability index,Saccharomyces cerevisiae [2],0.566
PDKLNHLIKLLN,protein stability index,Saccharomyces cerevisiae [1],0.133
same,protein stability index,Saccharomyces cerevisiae [2],0.609
PDKRLHLIKLLN,protein stability index,Saccharomyces cerevisiae [1],0.126
same,protein stability index,Saccharomyces cerevisiae [2],0.629
PDKRNHLDKLLN,protein stability index,Saccharomyces cerevisiae [1],0.574
same,protein stability index,Saccharomyces cerevisiae [2],0.578
PDKRNHLIELLN,protein stability index,Saccharomyces cerevisiae [1],0.272
same,protein stability index,Saccharomyces cerevisiae [2],0.702
PDKRNHLIFLLN,protein stability index,Saccharomyces cerevisiae [1],0.116
same,protein stability index,Saccharomyces cerevisiae [2],0.687
PDKRNHLIHLLN,protein stability index,Saccharomyces cerevisiae [1],0.0992
same,protein stability index,Saccharomyces cerevisiae [2],0.586
PDKRNHLIKDLN,protein stability index,Saccharomyces cerevisiae [1],0.628
same,protein stability index,Saccharomyces cerevisiae [2],0.557
PDKRNHLIKLLNA,protein stability index,Saccharomyces cerevisiae [1],0.13
same,protein stability index,Saccharomyces cerevisiae [2],0.665
PDKRNHLIKLLNE,protein stability index,Saccharomyces cerevisiae [1],0.564
same,protein stability index,Saccharomyces cerevisiae [2],0.662
PDKRNHLIKLLNG,protein stability index,Saccharomyces cerevisiae [1],0.17
same,protein stability index,Saccharomyces cerevisiae [2],0.662
PDKRNHLIKLLNT,protein stability index,Saccharomyces cerevisiae [1],0.144
same,protein stability index,Saccharomyces cerevisiae [2],0.663
PDKRNHLIKLLNY,protein stability index,Saccharomyces cerevisiae [1],0.16
same,protein stability index,Saccharomyces cerevisiae [2],0.657
PDKRNHLIKLMN,protein stability index,Saccharomyces cerevisiae [1],0.119
same,protein stability index,Saccharomyces cerevisiae [2],0.605
PDKRNHLIKMLN,protein stability index,Saccharomyces cerevisiae [1],0.0821
same,protein stability index,Saccharomyces cerevisiae [2],0.598
PDKRNHLIKWLN,protein stability index,Saccharomyces cerevisiae [1],0.182
same,protein stability index,Saccharomyces cerevisiae [2],0.694
PDKRNHLPKLLN,protein stability index,Saccharomyces cerevisiae [1],0.148
same,protein stability index,Saccharomyces cerevisiae [2],0.612
PDKRNHLSKLLN,protein stability index,Saccharomyces cerevisiae [1],0.136
same,protein stability index,Saccharomyces cerevisiae [2],0.659
PDKRNHLVKLLN,protein stability index,Saccharomyces cerevisiae [1],0.133
same,protein stability index,Saccharomyces cerevisiae [2],0.585
PDKRNHLYKLLN,protein stability index,Saccharomyces cerevisiae [1],0.196
same,protein stability index,Saccharomyces cerevisiae [2],0.598
PDKRNPLIKLLN,protein stability index,Saccharomyces cerevisiae [1],0.42
same,protein stability index,Saccharomyces cerevisiae [2],0.581
PDKRVHLIKLLN,protein stability index,Saccharomyces cerevisiae [1],0.128
same,protein stability index,Saccharomyces cerevisiae [2],0.61
PEKRNHLIKLLN,protein stability index,Saccharomyces cerevisiae [1],0.101
same,protein stability index,Saccharomyces cerevisiae [2],0.608
PKILRQKMNHQN,protein stability index,Saccharomyces cerevisiae [1],0.194
same,protein stability index,Saccharomyces cerevisiae [2],0.678
PKLAASFWRVVG,protein stability index,Saccharomyces cerevisiae [1],0.172
same,protein stability index,Saccharomyces cerevisiae [2],0.691
PLLAASFWRVVG,protein stability index,Saccharomyces cerevisiae [1],0.157
same,protein stability index,Saccharomyces cerevisiae [2],0.678
PMLAASFWRVVG,protein stability index,Saccharomyces cerevisiae [1],0.162
same,protein stability index,Saccharomyces cerevisiae [2],0.702
PSKAASFWRVVG,protein stability index,Saccharomyces cerevisiae [1],0.139
same,protein stability index,Saccharomyces cerevisiae [2],0.686
PSKRNHLIKLLN,protein stability index,Saccharomyces cerevisiae [1],0.145
same,protein stability index,Saccharomyces cerevisiae [2],0.61
PSLAAFFWRVVG,protein stability index,Saccharomyces cerevisiae [1],0.13
same,protein stability index,Saccharomyces cerevisiae [2],0.691
PSLAAMFWRVVG,protein stability index,Saccharomyces cerevisiae [1],0.137
same,protein stability index,Saccharomyces cerevisiae [2],0.691
PSLAARFWRVVG,protein stability index,Saccharomyces cerevisiae [1],0.14
same,protein stability index,Saccharomyces cerevisiae [2],0.679
PSLAASFDRVVG,protein stability index,Saccharomyces cerevisiae [1],0.644
same,protein stability index,Saccharomyces cerevisiae [2],0.684
PSLAASFGRVVG,protein stability index,Saccharomyces cerevisiae [1],0.661
same,protein stability index,Saccharomyces cerevisiae [2],0.672
PSLAASFKRVVG,protein stability index,Saccharomyces cerevisiae [1],0.683
same,protein stability index,Saccharomyces cerevisiae [2],0.677
PSLAASFWNVVG,protein stability index,Saccharomyces cerevisiae [1],0.331
same,protein stability index,Saccharomyces cerevisiae [2],0.69
PSLAASFWRFVG,protein stability index,Saccharomyces cerevisiae [1],0.137
same,protein stability index,Saccharomyces cerevisiae [2],0.707
PSLAASFWRNVG,protein stability index,Saccharomyces cerevisiae [1],0.17
same,protein stability index,Saccharomyces cerevisiae [2],0.7
PSLAASFWRVFG,protein stability index,Saccharomyces cerevisiae [1],0.367
same,protein stability index,Saccharomyces cerevisiae [2],0.699
PSLAASFWRVKG,protein stability index,Saccharomyces cerevisiae [1],0.549
same,protein stability index,Saccharomyces cerevisiae [2],0.664
PSLAASFWRVMG,protein stability index,Saccharomyces cerevisiae [1],0.144
same,protein stability index,Saccharomyces cerevisiae [2],0.664
PSLAASFWRVVE,protein stability index,Saccharomyces cerevisiae [1],0.684
same,protein stability index,Saccharomyces cerevisiae [2],0.696
PSLAASFWRVVGN,protein stability index,Saccharomyces cerevisiae [1],0.651
same,protein stability index,Saccharomyces cerevisiae [2],0.689
PSLAASFWRVVGV,protein stability index,Saccharomyces cerevisiae [1],0.674
same,protein stability index,Saccharomyces cerevisiae [2],0.685
PSLAASFWRVVL,protein stability index,Saccharomyces cerevisiae [1],0.617
same,protein stability index,Saccharomyces cerevisiae [2],0.724
PSLAASFWRVVM,protein stability index,Saccharomyces cerevisiae [1],0.282
same,protein stability index,Saccharomyces cerevisiae [2],0.743
PSLAASFWRVVQ,protein stability index,Saccharomyces cerevisiae [1],0.252
same,protein stability index,Saccharomyces cerevisiae [2],0.711
PSLAASFWRVVT,protein stability index,Saccharomyces cerevisiae [1],0.147
same,protein stability index,Saccharomyces cerevisiae [2],0.693
PSLAASFWRYVG,protein stability index,Saccharomyces cerevisiae [1],0.134
same,protein stability index,Saccharomyces cerevisiae [2],0.657
PSLAQSFWRVVG,protein stability index,Saccharomyces cerevisiae [1],0.188
same,protein stability index,Saccharomyces cerevisiae [2],0.699
PSLIASFWRVVG,protein stability index,Saccharomyces cerevisiae [1],0.12
same,protein stability index,Saccharomyces cerevisiae [2],0.672
PSLQASFWRVVG,protein stability index,Saccharomyces cerevisiae [1],0.111
same,protein stability index,Saccharomyces cerevisiae [2],0.633
PSLYASFWRVVG,protein stability index,Saccharomyces cerevisiae [1],0.0956
same,protein stability index,Saccharomyces cerevisiae [2],0.674
RGIQPLPVQFLN,protein stability index,Saccharomyces cerevisiae [1],0.112
same,protein stability index,Saccharomyces cerevisiae [2],0.581
RLDQPLPVQFLN,protein stability index,Saccharomyces cerevisiae [1],0.0831
same,protein stability index,Saccharomyces cerevisiae [2],0.808
RLGQPLPVQFLN,protein stability index,Saccharomyces cerevisiae [1],0.0875
same,protein stability index,Saccharomyces cerevisiae [2],0.611
RLIQPIPVQFLN,protein stability index,Saccharomyces cerevisiae [1],0.0323
same,protein stability index,Saccharomyces cerevisiae [2],0.597
RLIQPKPVQFLN,protein stability index,Saccharomyces cerevisiae [1],0.0691
same,protein stability index,Saccharomyces cerevisiae [2],0.586
RLIQPLFVQFLN,protein stability index,Saccharomyces cerevisiae [1],0.0762
same,protein stability index,Saccharomyces cerevisiae [2],0.621
RLIQPLPDQFLN,protein stability index,Saccharomyces cerevisiae [1],0.61
same,protein stability index,Saccharomyces cerevisiae [2],0.631
RLIQPLPVCFLN,protein stability index,Saccharomyces cerevisiae [1],0.0773
same,protein stability index,Saccharomyces cerevisiae [2],0.582
RLIQPLPVGFLN,protein stability index,Saccharomyces cerevisiae [1],0.322
same,protein stability index,Saccharomyces cerevisiae [2],0.587
RLIQPLPVQFKN,protein stability index,Saccharomyces cerevisiae [1],0.618
same,protein stability index,Saccharomyces cerevisiae [2],0.648
RLIQPLPVQFLE,protein stability index,Saccharomyces cerevisiae [1],0.633
same,protein stability index,Saccharomyces cerevisiae [2],0.743
RLIQPLPVQFLNC,protein stability index,Saccharomyces cerevisiae [1],0.486
same,protein stability index,Saccharomyces cerevisiae [2],0.635
RLIQPLPVQFLNI,protein stability index,Saccharomyces cerevisiae [1],0.627
same,protein stability index,Saccharomyces cerevisiae [2],0.644
RLIQPLPVQFLNL,protein stability index,Saccharomyces cerevisiae [1],0.636
same,protein stability index,Saccharomyces cerevisiae [2],0.656
RLIQPLPVQFLNS,protein stability index,Saccharomyces cerevisiae [1],0.385
same,protein stability index,Saccharomyces cerevisiae [2],0.658
RLIQPLPVQFLNT,protein stability index,Saccharomyces cerevisiae [1],0.614
same,protein stability index,Saccharomyces cerevisiae [2],0.639
RLIQPLPVQFLNV,protein stability index,Saccharomyces cerevisiae [1],0.599
same,protein stability index,Saccharomyces cerevisiae [2],0.621
RLIQPLPVQFLT,protein stability index,Saccharomyces cerevisiae [1],0.223
same,protein stability index,Saccharomyces cerevisiae [2],0.59
RLIQPLPVQFQN,protein stability index,Saccharomyces cerevisiae [1],0.366
same,protein stability index,Saccharomyces cerevisiae [2],0.548
RLIQPLPVQNLN,protein stability index,Saccharomyces cerevisiae [1],0.447
same,protein stability index,Saccharomyces cerevisiae [2],0.645
RLIQPLPVQPLN,protein stability index,Saccharomyces cerevisiae [1],0.587
same,protein stability index,Saccharomyces cerevisiae [2],0.579
RLIQPLPYQFLN,protein stability index,Saccharomyces cerevisiae [1],0.0818
same,protein stability index,Saccharomyces cerevisiae [2],0.621
RLIQPLRVQFLN,protein stability index,Saccharomyces cerevisiae [1],0.06
same,protein stability index,Saccharomyces cerevisiae [2],0.593
RLIQPLWVQFLN,protein stability index,Saccharomyces cerevisiae [1],0.0634
same,protein stability index,Saccharomyces cerevisiae [2],0.569
RLIQPMPVQFLN,protein stability index,Saccharomyces cerevisiae [1],0.0562
same,protein stability index,Saccharomyces cerevisiae [2],0.607
